Experimental data reported in patent US20100015126A1, “Methods of Binding of Cross-Beta Structures By Chaperones” (priority 2006, published 2010).
One block for each substance: values may come before it.

Assays:
BiP-Sepharose [1] = target: T1, BiP-Sepharose (Homo sapiens, UniProt P11021); assay: Experiment 2: BiP-Sepharose extraction from six synovial fluid samples of RA patients and mass spectrometry; format: binding; details: BiP-Sepharose eluate, synovial fluid of RA patient
T1 construct: The human BiP gene except the signal peptide encoding region was obtained from Geneart (Germany); linker […]; made in house; host or cells: HEK 293E cells, transient transfection, PABC674 vector; secreted into the medium
Protocol: (§1) Six samples were incubated with the BiP-Sepharose, IgIV-Sepharose and the control-Sepharose: Normal pooled plasma, plasma of a patient I or of a patient II, with AL amyloidosis, serum of a patient III with RA (Rheumatoid Factor (RF) titer 682), control serum and synovial fluid of a patient IV with RA (RF titer 23). All samples were diluted 20× in HBS and applied to 200 μl beads in two volumes of 500 μl. One volume was incubated for 4 h at RT and supernatant was discarded after centrifugation (2 minutes at 1400 rpm). Subsequently, the second volume was applied to the same matrix and incubated overnight on a roller device at 4° C. […] To collect the eluates, the matrices were centrifuged and the two eluates were pooled for each sample.
(§2) Protein digests were desalted as described (Rappsilber et al., 2003), vacuum dried and dissolved in 2.5% formic acid.
(§3) For analysis of peptide mixtures, an Agilent 1100 HPLC system (Agilent Technologies) connected to a Thermo Finnigan LTQ-MS (Thermo Electron, Bremen, Germany) was used. Protein digests were injected on a trap column (Reprosil C18 RP (Dr Maisch, Germany), 20 mm×100 μm I.D.) at 5 μl/minute. Subsequently, the peptides were transferred with a split-reduced flow rate of 100 nL/minute solvent A (0.1 M acetic acid) on the analytical column (Reprosil C18 RP, 20 cm×50 μm I.D.). […] The column effluent was directly introduced into the ESI source of the mass spectrometer via a butt-connected nano-ESI emitter (New Objectives, Woburn, Mass.). The mass spectrometer was operated in the positive ion mode and parent ions were selected for fragmentation in data-dependent mode.
(§4) After mass spectrometric measurements, peak lists were generated using BioWorks software (Thermo Electron, Bremen, Germany). Protein identification was performed using Mascot software (www.matrixscience.com) by searching the IPIhuman database (version 3.24, downloaded from ftp://ftp.ebi.ac.uk/pub/databases/IPI/current) using the following settings: fully tryptic peptides, peptide tolerance 0.8 Da, MS/MS tolerance 0.9 Da, 1 missed cleavage allowed, carbamidomethyl (Cys) and oxidation (Met) as fixed and variable modification, respectively. The Scaffold software package (www.proteomesoftware.com) was used to parse the data and to filter peptides at a confidence level of 95%, allowing only protein identification with at least 2 peptides identified.
Those samples are listed below: • 1. […] One difference when compared to the protocol described above is that now with the twelve samples, elution buffer comprised 1 M NaCl. Again, a misfolded protein or a protein binding to misfolded protein is identified uniquely in the synovial fluid when no or a relatively very low number of fragments are detected in eluates of control-Sepharose.

BiP-Sepharose [2] = target: T1, BiP-Sepharose; assay: BiP-Sepharose extraction of proteins from patient plasma, serum, synovial fluid and mass-spectrometric identification; format: binding; details: for Specific binding to BiP-Sepharose from control serum: compared to RA patient III
Protocol: BiP was coated on CNBr-Sepharose (GE-Healthcare, Amersham Biosciences). Immobilization of BiP was performed essentially as described elsewhere in this application for NHS-Sepharose. CNBr-matrix was dissolved at 200 mg/ml in 1 mM HCl and treated the same as the NHS-matrix, except for an additional 5 minutes activation step in 1 mM HCl on a roller device before washing in this buffer. BiP was diluted in immobilization buffer (50 mM NaCl and 40 mM NaHCO3) to a concentration of 820 μg/ml. A total volume of 2 ml BiP solution (1640 μg BiP) was incubated with 360 mg beads. Negative control matrix was exposed to immobilization buffer, only. After overnight immobilization matrix was blocked with Tris and washed.
as §1, §2, §3, §4

[3] = Sample B2: eluate of BiP-Sepharose contacted with AL amyloidosis patient I plasma
[4] = Sample B3: eluate of BiP-Sepharose contacted with AL amyloidosis patient II plasma
[5] = Sample B4: eluate of BiP-Sepharose contacted with RA patient III serum
[6] = Sample B6: eluate of BiP-Sepharose contacted with RA patient IV synovial fluid
[7] = compared to AL amyloidosis patient II

T1 sequence (P11021 19-654): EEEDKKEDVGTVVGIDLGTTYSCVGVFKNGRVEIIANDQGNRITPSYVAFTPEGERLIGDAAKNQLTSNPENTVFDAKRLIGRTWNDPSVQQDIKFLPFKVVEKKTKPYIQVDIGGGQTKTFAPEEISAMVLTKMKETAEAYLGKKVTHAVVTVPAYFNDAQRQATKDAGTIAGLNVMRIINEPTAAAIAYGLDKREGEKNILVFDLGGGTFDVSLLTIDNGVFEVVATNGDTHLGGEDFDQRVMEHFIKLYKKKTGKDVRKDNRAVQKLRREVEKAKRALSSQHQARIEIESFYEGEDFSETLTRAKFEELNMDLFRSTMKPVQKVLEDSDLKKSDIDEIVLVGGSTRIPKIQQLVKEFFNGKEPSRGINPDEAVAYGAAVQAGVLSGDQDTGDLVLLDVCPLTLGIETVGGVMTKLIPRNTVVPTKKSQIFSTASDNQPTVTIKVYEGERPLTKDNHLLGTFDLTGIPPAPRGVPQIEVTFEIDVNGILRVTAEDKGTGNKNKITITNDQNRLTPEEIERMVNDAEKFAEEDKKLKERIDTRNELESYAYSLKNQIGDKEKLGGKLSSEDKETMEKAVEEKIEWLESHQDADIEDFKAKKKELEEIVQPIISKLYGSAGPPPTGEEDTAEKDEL

# of unique peptides (BiP-Sepharose [1]; Sample 1B): 2 | # of unique peptides (BiP-Sepharose [1]; Sample 5B): 1
Substance: 187 kDa protein, complement component 3

# of unique peptides (BiP-Sepharose [1]; Sample 1B): 3 | # of unique peptides (BiP-Sepharose [1]; Sample 3B): 8
Substance: Apolipoprotein A-I precursor

# of unique peptides (BiP-Sepharose [1]; Sample 1B): 1
Substance: Apolipoprotein A-II precursor

# of unique peptides (BiP-Sepharose [1]; Sample 1B): 9 | # of unique peptides (BiP-Sepharose [1]; Sample 3B): 12
Substance: Apolipoprotein B-100 precursor

# of unique peptides (BiP-Sepharose [1]; Sample 1B): 1 | # of unique peptides (BiP-Sepharose [1]; Sample 2B): 1 | # of unique peptides (BiP-Sepharose [1]; Sample 3B): 1
Substance: Clusterin precursor

# of unique peptides (BiP-Sepharose [1]; Sample 1B): 21 | # of unique peptides (BiP-Sepharose [1]; Sample 2B): 12 | # of unique peptides (BiP-Sepharose [1]; Sample 3B): 19 | # of unique peptides (BiP-Sepharose [1]; Sample 4B): 10 | # of unique peptides (BiP-Sepharose [1]; Sample 5B): 10 | # of unique peptides (BiP-Sepharose [1]; Sample 6B): 17
Substance: HSPA5 protein/BiP

# of unique peptides (BiP-Sepharose [1]; Sample 1B): 1 | # of unique peptides (BiP-Sepharose [1]; Sample 3B): 3
Substance: Haptoglobin precursor

# of unique peptides (BiP-Sepharose [1]; Sample 1B): 1 | # of unique peptides (BiP-Sepharose [1]; Sample 2B): 1 | # of unique peptides (BiP-Sepharose [1]; Sample 3B): 1 | # of unique peptides (BiP-Sepharose [1]; Sample 5B): 1 | # of unique peptides (BiP-Sepharose [1]; Sample 6B): 1
Substance: Heat shock 70 kDa protein 1L

# of peptides in sample A# (BiP-Sepharose [2]; [3]): 1 | # of peptides in sample A# (BiP-Sepharose [2]; [4]): 2
Substance: Hypothetical protein/immunoglobulin lambda variable 4-3 [IPI00382938]

# of unique peptides (BiP-Sepharose [1]; Sample 1B): 4 | # of unique peptides (BiP-Sepharose [1]; Sample 2B): 1
Substance: IGHG4 protein, immunoglobulin heavy constant gamma 4

# of unique peptides (BiP-Sepharose [1]; Sample 1B): 3 | # of unique peptides (BiP-Sepharose [1]; Sample 3B): 5
Substance: IGKV1-5 protein, immunoglobulin kappa variable 1-5

# of peptides in sample A# (BiP-Sepharose [2]; [4]): 1 | # of peptides in sample A# (BiP-Sepharose [2]; [5]): 2 | # of peptides in sample A# (BiP-Sepharose [2]; [6]): 1
Substance: IGLC1 protein (immunoglobulin lambda C1)/immunoglobulin lambda chain/immunoglobulin C1 segment protein (fragment) [IPI00719373]

# of peptides in sample A# (BiP-Sepharose [2]; [3]): 1
Substance: IGLC2 protein (immunoglobulin lambda C2)/Immunoglobulin lambda [IPI00555945]

# of peptides in sample A# (BiP-Sepharose [2]; [6]): 2
Substance: Ig heavy chain V-III region CAM [IPI00382482]

# of peptides in sample A# (BiP-Sepharose [2]; [5]): 1
Substance: Ig heavy chain V-III region TUR/Ig heavy chain V-III region TIL [IPI00382478]

# of peptides in sample A# (BiP-Sepharose [2]; [5]): 2
Substance: Ig kappa chain V-I region WEA/Similar to Ig kappa chain V-I region HK102 precursor/Ig kappa chain V-I region AU [IPI00003111]

# of unique peptides (BiP-Sepharose [1]; Sample 3B): 1
Substance: Ig kappa chain V-IV region Len, immunoglobulin kappa variable 4-1

# of peptides in sample A# (BiP-Sepharose [2]; [5]): 5
Substance: Immunoglobulin J chain, Immunoglobulin J polypeptide, linker protein for immunoglobulin alpha and mu polypeptides [IPI00178926]

# of peptides in sample A# (BiP-Sepharose [2]; [3]): 8 | # of peptides in sample A# (BiP-Sepharose [2]; [5]): 10
Substance: Immunoglobulin lambda variable 3-25/V2-17 protein (Fragment) [IPI00550162]

# of unique peptides (BiP-Sepharose [1]; Sample 1B): 3
Substance: Isoform 1 of Fibrinogen alpha chain precursor

# of peptides in sample A# (BiP-Sepharose [2]; [4]): 1 | # of peptides in sample A# (BiP-Sepharose [2]; [5]): 2
Substance: Isoform 1 of Plectin-1/Plectin 1 (intermediate filament binding protein 500 kDa, Hemidesmosomal protein 1/HD1) [IPI00014898]

# of peptides in sample A# (BiP-Sepharose [2]; [3]): 1
Substance: Isoform Long of Antigen KI-67/Antigen KI-67 [IPI00004233]

# of peptides in sample A# (BiP-Sepharose [2]; [5]): 3
Substance: Myosin-reactive immunoglobulin light chain variable region/Ig kappa chain V-III region VH precursor (Fragment) [IPI00024138]

# of unique peptides (BiP-Sepharose [1]; Sample 2B): 1 | # of unique peptides (BiP-Sepharose [1]; Sample 3B): 1
Substance: Neutrophil defensin 1 precursor

# of peptides in sample A# (BiP-Sepharose [2]; [5]): 2
Substance: Phosphatase and actin regulator 4 isoform 1/Hypothetical protein DKFZp686L07205 [IPI00217851]

# of unique peptides (BiP-Sepharose [1]; Sample 5B): 1
Substance: Serotransferrin precursor

# of peptides in sample A# (BiP-Sepharose [2]; [4]): 2
Substance: Single-chain Fv (Fragment) [IPI00470652]

# of unique peptides (BiP-Sepharose [1]; Sample 1B): 2
Substance: Single-chain Fv (Fragment), Ig heavy chain V-III region TRO

# of unique peptides (BiP-Sepharose [1]; Sample 1B): 1 | # of unique peptides (BiP-Sepharose [1]; Sample 5B): 2 | # of unique peptides (BiP-Sepharose [1]; Sample 6B): 1
Substance: Vitronectin precursor

# of peptides in sample A# (BiP-Sepharose [2]; [5]): 4
Substance: Vitronectin precursor (Serum-spreading factor/S-protein/V75 [Contains: Vitronectin V65 subunit; Vitronectin V10 subunit; Somatomedin B])/Vitronectin [IPI00298971]

Specific binding to BiP-Sepharose from normal pooled plasma (BiP-Sepharose [2]; [7]): specifically bound | Specific binding to BiP-Sepharose from control serum (BiP-Sepharose [2]): specifically bound
Substance: clusterin isoform 1 [IPI00291262]

Specific binding to BiP-Sepharose from normal pooled plasma (BiP-Sepharose [2]; [7]): specifically bound
Substance: complement factor H isoform I [IPI00029739]

# of unique peptides (BiP-Sepharose [1]; Sample 1B): 10 | # of unique peptides (BiP-Sepharose [1]; Sample 2B): 2 | # of unique peptides (BiP-Sepharose [1]; Sample 5B): 2
Substance: fibronectin 1 isoform 4 preproprotein

Specific binding to BiP-Sepharose from normal pooled plasma (BiP-Sepharose [2]; compared to AL amyloidosis patient I): specifically bound | Specific binding to BiP-Sepharose from normal pooled plasma (BiP-Sepharose [2]; [7]): specifically bound | Specific binding to BiP-Sepharose from control serum (BiP-Sepharose [2]): specifically bound
Substance: haptoglobin [IPI00431645]
